Measured values: article doi:10.1101/816264

Target: mouse ASIC1a wild type (mouse) (UniProt Q6NXK8)
Sequence of UniProt Q6NXK8 (Q6NXK8 whole entry): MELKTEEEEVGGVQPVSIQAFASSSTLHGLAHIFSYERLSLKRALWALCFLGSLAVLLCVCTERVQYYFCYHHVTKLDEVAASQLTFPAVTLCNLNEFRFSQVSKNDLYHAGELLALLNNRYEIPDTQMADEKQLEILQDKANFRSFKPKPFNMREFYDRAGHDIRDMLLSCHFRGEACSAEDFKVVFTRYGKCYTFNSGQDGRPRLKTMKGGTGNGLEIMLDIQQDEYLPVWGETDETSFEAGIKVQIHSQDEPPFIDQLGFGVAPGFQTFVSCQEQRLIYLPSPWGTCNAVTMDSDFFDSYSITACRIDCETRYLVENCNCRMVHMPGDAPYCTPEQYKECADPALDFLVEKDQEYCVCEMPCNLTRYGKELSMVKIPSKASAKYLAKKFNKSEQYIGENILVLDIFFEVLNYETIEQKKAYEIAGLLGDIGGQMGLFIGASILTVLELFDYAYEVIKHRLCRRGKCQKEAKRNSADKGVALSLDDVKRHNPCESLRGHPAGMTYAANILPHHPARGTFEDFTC

fold increase of the EC50 of current rescue against BigDyn (TEVC): > 50 fold
Substance: BigDyn Arg9Ala (peptide)
